The source of these data is patent US20050101770A1 (SCHERING, published 2005).

Assay [1] addresses T1, rat anti hIL-10 mAb 12G8 (r12G8): JES3.12G8.
T1 construct: Rat monoclonal antibody; also called Rat 12G8; JES.12G8
Description: IGEN competitive ECLA, mean ± S.D. (n); summary of Table 15. From the text:
(§1) Materials used. 96 well Polypropylene plates (Costar, Cat. No. 3365, Fisher Sci. Cat. No. 07200697); assay buffer of 0.1% BSA, 0.05% tween 20, PBS pH 7.5; paramagnetic beads (Streptavidin-Dynabeads, Igen, Inc., Cat. No. 110029); recombinant human IL-10 dimer (hIL-10-dimer); recombinant human IL-10-monomer (hlL-10-mono); recombinant mouse IL-10 (mIL-10); recombinant cyno IL-10 (cyno IL-10); and recombinant hIL-10Ra (hL-10Ra): FLAG-tagged protein. Ori-Tag labeled anti-FLAG M2 monoclonal antibodies were prepared using Ori-Tag-NHS ester (Igen, Inc. Cat. No. 110034) according to manufacturer's protocol (OriTag label: IgG challenge ratio 8:1). Anti-Flag M2 monoclonal antibodies were purchased from Sigma (Cat. No. F3165). Ori-Tag labeled anti hIgG 1A2 monoclonal antibodies were prepared as above using rat anti hIgG monoclonal antibodies. Ori-Tag labeled anti rat IgG antibodies were prepared as above from polyclonal Goat anti rat IgG (H+L) antibodies (Jackson Immunoresearch Laboratories, Inc. PA, Cat. No. 112-005-143). Biotinylated recombinant human IL-10 (hIL-10-biotin) was prepared using TFP-PEO-biotin (Pierce, Cat. No. 21219) according to manufacturer's recommendations (Pierce bulletin 0874). The rat anti hIL-10 mAb 12G8 (r12G8): JES3.12G8 and humanized anti hIL-10 mAb 12G8 (hl2G8-1) were prepared as described herein.
(§2) Protocol. ⅓ serial dilutions in 50 microliters of the assay buffer were made in 96-well microtiter plate for all unlabeled IL-10 preparations (mIL-10, cyno IL-10, hIL-10 dimer, hIL-10 mono) starting with 3 μg/ml in the first well. All samples were run in duplicates. 50 μl of hIL-10-biotin at 25 ng/ml was added to each well, followed by the addition of either hIL-10Ra (50 μl at 100 ng/ml) or […] (50 μl at 10 ng/ml). 50 microliters of Ori-Tag conjugated secondary antibodies was added to each well at 500 ng/ml conc. For hIL-10Ra, r12G8 and h12G8 the following Ori-Tag conjugated were used accordingly: anti-FLAG M2-OriTag, anti-rat IgG-OriTag and anti hIgG 1A2-OriTag. Finally to each well 50 μl of Streptavidin-Dynabeads at 0.1 mg/ml was added. After a one hour incubation at room temperature the plate was processed by the M-series M8/384 analyzer. Percent inhibition of the signal by unlabeled IL-10 preparations was calculated relative to the control samples. To plot the data and calculate IC₅₀ the GraphPad Prism Software was used.

For assay [2], the target named is T2, Monoclonal humanized antibody SCH 708980 to recombinant human IL-10 (humanized 12G8).
T2 construct: also called h12G8; hu12G8
Described as above.
Excerpt: as §1, §2

Assay [3] addresses T1, rat anti hIL-10 mAb 12G8 (r12G8): …. The assay is described as follows: competitive ECLA (IGEN): unlabeled IL-10 varied, competitor hIL-10-biotin.
Excerpt: as §1, §2

In assay [4] the target is T2, Monoclonal humanized antibody SCH …. The description is as above.
Excerpt: as §1, §2

Assay [5] deals with T3, recombinant hIL-10Ra (hIL-10Ra): FLAG-tagged protein (human, UniProt Q13651 22-235).
T3 construct: The order of the receptor part and the FLAG tag is unknown; also called huIL-10Ra; not shown: FLAG tag
T3 sequence (looked up): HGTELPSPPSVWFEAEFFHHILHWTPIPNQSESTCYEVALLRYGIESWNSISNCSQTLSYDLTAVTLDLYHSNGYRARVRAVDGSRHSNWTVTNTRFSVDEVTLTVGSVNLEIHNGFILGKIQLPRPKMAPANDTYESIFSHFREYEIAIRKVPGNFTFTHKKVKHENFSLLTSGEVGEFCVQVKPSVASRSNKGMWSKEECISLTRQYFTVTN
Description: competitive ECLA (IGEN): unlabeled IL-10 against hIL-10-biotin for FLAG-tagged hIL-10Ra.
Excerpt: as §1, with “Biotinylated recombinant human IL-10 (hIL-10-biotin) was prepared using TFP-PEO-biotin (Pierce, Cat. No. 21219) according to manufacturer's recommendations (Pierce bulletin 0874). The rat anti hIL-10 mAb 12G8 (r12G8): JES3.12G8 and humanized anti hIL-10 mAb 12G8 (hl2G8-1) were prepared as described herein.” left out
Protocol. ⅓ serial dilutions in 50 microliters of the assay buffer were made in 96-well microtiter plate for all unlabeled IL-10 preparations (mIL-10, cyno IL-10, hIL-10 dimer, hIL-10 mono) starting with 3 μg/ml in the first well. […] Percent inhibition of the signal by unlabeled IL-10 preparations was calculated relative to the control samples. […]

B1: recombinant mouse IL-10 (mIL-10) (ligand, UniProt P18893 19-178, looked up)
chain: SRGQYSREDNNCTHFPVGQSHMLLELRTAFSQVKTFFQTKDQLDNILLTDSLMQDFKGYLGCQALSEMIQFYLVEVMPQAEKHGPEIKEHLNSLGEKLKTLRMRLRRCHRFLPCENKSKAVEQVKSDFNKLQDQGVYKAMNEFDIFINCIEAYMMIKMKS
On to B1, for which the IC50 worked out at 38 nM in assay [1], 53 nM in assay [2], 37.9 nM in assay [3] and 53 nM in assay [4]. Further, the binding result in assay [5] is “no binding (tested: unlabeled IL-10 titrated from 3 µg/ml)”.

Usually IC50 stands for the concentration that gives 50% inhibition.
